According to publication PMC6004067:

Molecular target: GST-TBP, GST-tagged full-length human TBP (human) (UniProt P20226)
Test: pull-down; GST pull-down: GST-TBP, GST-TFIIB or TBP fragments on glutathione beads; analytes in buffer B2 (150 mM NaCl), 1 h at 4°C, four washes, Western blot

GST-TBP, GST-tagged full-length human TBP (human), sequence (P20226 whole entry, the tested form may be a part): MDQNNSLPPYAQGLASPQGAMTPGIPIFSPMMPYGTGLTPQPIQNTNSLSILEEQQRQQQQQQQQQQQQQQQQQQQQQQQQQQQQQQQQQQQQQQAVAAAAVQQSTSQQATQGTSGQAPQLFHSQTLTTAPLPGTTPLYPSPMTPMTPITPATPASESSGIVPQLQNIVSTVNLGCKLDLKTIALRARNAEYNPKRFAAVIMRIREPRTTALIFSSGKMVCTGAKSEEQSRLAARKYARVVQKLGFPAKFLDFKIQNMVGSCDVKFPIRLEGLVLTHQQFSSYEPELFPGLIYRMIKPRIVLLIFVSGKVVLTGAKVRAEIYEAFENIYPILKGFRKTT

increase in SNAPc recruitment to GST-TBP on addition of TFIIA: 60%
Substance: SNAP complex (SNAPc) (from UniProt Q5SXM2 1-1469; Q92966 1-411; Q13487 1-334; Q16533 1-368; O75971 1-98)
